{"source": "patent US12016906B2", "about": "“Pharmaceutical composition for anaemia” (Frimline Private Limited, priority 2018, dated 2024)", "molecules": {"B1": {"name": "Lactoferrin: multifunctional globular glycoprotein of the transferrin family, about 80 kDa; individual component group (protein, UniProt P02788 20-710, looked up)", "Lactotransferrin": "GRRRSVQWCAVSQPEATKCFQWQRNMRKVRGPPVSCIKRDSPIQCIQAIAENRADAVTLDGGFIYEAGLAPYKLRPVAAEVYGTERQPRTHYYAVAVVKKGGSFQLNELQGLKSCHTGLRRTAGWNVPIGTLRPFLNWTGPPEPIEAAVARFFSASCVPGADKGQFPNLCRLCAGTGENKCAFSSQEPYFSYSGAFKCLRDGAGDVAFIRESTVFEDLSDEAERDEYELLCPDNTRKPVDKFKDCHLARVPSHAVVARSVNGKEDAIWNLLRQAQEKFGKDKSPKFQLFGSPSGQKDLLFKDSAIGFSRVPPRIDSGLYLGSGYFTAIQNLRKSEEEVAARRARVVWCAVGEQELRKCNQWSGLSEGSVTCSSASTTEDCIALVLKGEADAMSLDGGYVYTAGKCGLVPVLAENYKSQQSSDPDPNCVDRPVEGYLAVAVVRRSDTSLTWNSVKGKKSCHTAVDRTAGWNIPMGLLFNQTGSCKFDEYFSQSCAPGSDPRSNLCALCIGDEQGENKCVPNSNERYYGYTGAFRCLAENAGDVAFVKDVTVLQNTDGNNNEAWAKDLKLADFALLCLDGKRKPVTEARSCHLAMAPNHAVVSRMDKVERLKQVLLHQQAKFGRNGSDCPDKFCLFQSETKNLLFNDNTECLARLHGKTTYEKYLGPQYVAGITNLKKCSTSPLLEACEFLRK"}}, "assay_type_in_all_cases": "in vivo, male Wistar rats (Rat Rattus)", "conditions_in_all_cases": "IDD rats", "key": {"[1]": {"tested_on": "Iron deficient Diet (IDD) induced anaemia in rats", "assay": "Hb level in IDD induced anaemia in rats", "protocol": "(§1) Screening of pharmaceutical composition/formulation comprising combination of Lactoferrin+Guanosine Nucleotide or a pharmaceutically acceptable salt thereof with or without optional ingredients against Iron deficient Diet (IDD) induced anaemia in rats. For this study different parameters like Hb Level, Hematocrit level, Serum Iron level, Ferroportin level, Serum Ferritin level, Hepcidin level and IL-6 Level were evaluated. The following trials were carried out by taking reference from Wang Xl, Liu S, Xu H, Yan W, Effects of recombinant human lactoferrin on improving the iron status of IDA. Wei Sheng Yan Jiu.\n(§2) 72 male Wistar rats (Rat Rattus) (6 per group) were maintained in animal house in a light/dark atmosphere based on a 12 hour cycle having temperature and relative humidity in the range of 22±3° C. and 30-70% respectively. To maintain the appropriate conditions, temperature and relative humidity were recorded three times daily. All animals were acclimatized for a minimum period of five days. Animals were maintained in the test setup for minimum 30 minutes once during the acclimatization period to reduce the stress. Animals were weighed on the day of receipt and observed daily for abnormalities if any. Detailed records of acclimatization were also maintained. Rats were housed 6 per cage in clean, sterilized Polypropylene cages. […]\nAfter 3 weeks of respective dietary intervention, the level of Hemoglobin was determined in each animal.\n(§3) After 5 weeks (35 days) of respective dietary intervention, once again hemoglobin level, HCT % level and serum iron level were analyzed and then, respective drug treatment was started with continuous administration of Iron deficient diets in all groups as mentioned above in Table 1.\n(§4) After 9 weeks of respective drug treatment (total after 14 weeks from start of the study—98 days), various biochemical parameters were measured to evaluate the effect of respective individual and combination therapy on iron deficient anaemia model (G3 to G12). […]"}, "[2]": {"tested_on": "Iron deficient Diet (IDD) induced anaemia in rats", "assay": "Hematocrit % level in IDD induced anaemia in rats", "protocol": "as §1, with “Jiu. 2012 January; 41(1):13-7, 22 and Nora M. El-Sheikh, the Protective Effect of Soybean and Thyme on Iron Deficiency Anemia in Rats, the Egyptian Journal of Hospital Medicine (2008) Vol., 33: 510-520 as available.” for “Jiu.”\nas §2, with “any.” for “any. Detailed records of acclimatization were also maintained. Rats were housed 6 per cage in clean, sterilized Polypropylene cages.”\n(§5) After 3 weeks of respective dietary intervention, the level of Hemoglobin was determined in each animal. […]\nas §3, §4"}, "[3]": {"tested_on": "Iron deficient Diet (IDD) induced anaemia in rats", "assay": "Serum iron level in IDD induced anaemia in rats", "protocol": "as §1, with “Jiu. 2012 January; 41(1):13-7, 22 and Nora M. El-Sheikh, the Protective Effect of Soybean and Thyme on Iron Deficiency Anemia in Rats, the Egyptian Journal of Hospital Medicine (2008) Vol., 33: 510-520 as available.” for “Jiu.”\nas §2, with “any.” for “any. Detailed records of acclimatization were also maintained. Rats were housed 6 per cage in clean, sterilized Polypropylene cages.”\nas §5, §3, §4"}, "[4]": {"tested_on": "Iron deficient Diet (IDD) induced anaemia in rats", "assay": "Ferroportin level in IDD induced anaemia in rats", "protocol": "as §1, with “Jiu. […]” for “Jiu.”\n(§6) 72 male Wistar rats (Rat Rattus) (6 per group) were maintained in animal house in a light/dark atmosphere based on a 12 hour cycle having temperature and relative humidity in the range of 22±3° C. and 30-70% respectively. To maintain the appropriate conditions, temperature and relative humidity were recorded three times daily. […]\n(§7) After 5 weeks (35 days) of respective dietary intervention, once again hemoglobin level, HCT % level and serum iron level were analyzed and then, respective drug treatment was started with continuous administration of Iron deficient diets in all groups as mentioned above in Table 1. […]"}, "[5]": {"tested_on": "Iron deficient Diet (IDD) induced anaemia in rats", "assay": "Serum ferritin level in IDD induced anaemia in rats", "protocol": "as §1, with “Jiu. […]” for “Jiu.”\nas §6, §7"}, "[6]": {"tested_on": "Iron deficient Diet (IDD) induced anaemia in rats", "assay": "Hepcidin level in IDD induced anaemia in rats", "protocol": "as §1, with “Jiu. […]” for “Jiu.”\nas §6, §7"}, "[7]": {"tested_on": "Iron deficient Diet (IDD) induced anaemia in rats", "assay": "IL-6 level in IDD induced anaemia in rats", "protocol": "as §1\n72 male Wistar rats (Rat Rattus) (6 per group) were maintained in animal house in a light/dark atmosphere based on a 12 hour cycle having temperature and relative humidity in the range of 22±3° C. and 30-70% respectively. To maintain the appropriate conditions, temperature and relative humidity were recorded three times daily. All animals were acclimatized for a minimum period of five days. […]\nas §7"}, "[8]": {"conditions": "Day 98, after 9 weeks of treatment p.o."}}, "data": [{"molecule": "B1", "values": [{"measurement": "Hemoglobin Pre-treatment", "setting": "[1]; Day 35, before treatment", "result": 8.8, "unit": "g/dL"}, {"measurement": "Hemoglobin Post-treatment", "setting": "[1]; [8]", "result": 10.3, "unit": "g/dL"}, {"measurement": "Hemoglobin % Change compared to Disease control", "setting": "[1]; Day 98", "result": 58.8, "unit": "%"}, {"measurement": "Hematocrit Pre-treatment", "setting": "[2]; Day 35, before treatment", "result": 35.33, "unit": "%"}, {"measurement": "Hematocrit Post-treatment", "setting": "[2]; [8]", "result": 40.17, "unit": "%"}, {"measurement": "Hematocrit % Change compared to Disease control", "setting": "[2]; Day 98", "result": 56.3, "unit": "%"}, {"measurement": "Serum IRON Pre-treatment", "setting": "[3]; Day 35, before treatment", "result": 3.08, "unit": "ppm"}, {"measurement": "Serum IRON Post-treatment", "setting": "[3]; [8]", "result": 5.31, "unit": "ppm"}, {"measurement": "Serum IRON % Change compared to Disease control", "setting": "[3]; Day 98", "result": 99.1, "unit": "%"}, {"measurement": "Ferroportin Post-treatment", "setting": "[4]; [8]", "result": 3.6, "unit": "ng/mL"}, {"measurement": "Ferroportin % Change compared to Disease control", "setting": "[4]; Day 98", "result": 31.4, "unit": "%"}, {"measurement": "Ferritin Post-treatment", "setting": "[5]; [8]", "result": 680, "unit": "ng/mL"}, {"measurement": "Ferritin % Change compared to Disease control", "setting": "[5]; Day 98", "result": "−8.1", "unit": "%"}, {"measurement": "Hepcidin Post-treatment", "setting": "[6]; [8]", "result": 3830, "unit": "ng/mL"}, {"measurement": "Hepcidin % Change compared to Disease control", "setting": "[6]; Day 98", "result": "−13.0", "unit": "%"}, {"measurement": "IL-6 Post-treatment", "setting": "[7]; [8]", "result": 57.2, "unit": "pg/mL"}, {"measurement": "IL-6 % Change compared to Disease control", "setting": "[7]; Day 98", "result": "−8.2", "unit": "%"}]}]}
